Assay results reported in paper PMC6826516.

What was measured:
[1] = target: T1, LgBiT-TEAD1-Myc (TEAD1 aa 194-411), mutant, P28347-1; test: NanoBiT assay (split-luciferase biosensor) in lysates of transfected HEK293T cells; details: chain shown with the change; 48 h after transfection; equal amounts of each biosensor plasmid; parent: est. 1300; read off a plot
T1 chain: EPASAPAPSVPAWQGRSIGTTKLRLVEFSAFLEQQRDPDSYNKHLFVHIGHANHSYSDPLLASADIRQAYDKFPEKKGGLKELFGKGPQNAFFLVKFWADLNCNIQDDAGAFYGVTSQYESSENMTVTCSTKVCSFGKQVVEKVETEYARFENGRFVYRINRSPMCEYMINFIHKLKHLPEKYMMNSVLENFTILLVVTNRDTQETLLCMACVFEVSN

[2] = target: T2, LgBiT-TEAD-His fusion protein (TEAD1 aa 194-411), mutant, P28347-1; test: NanoBiT assay (split-luciferase biosensor) with purified His-tagged fusion proteins in vitro; details: chain shown with the change; 100 ng of each construct; mixed and incubated for 5 min before substrate; parent: est. 59; read off a plot
T2 chain: T1 chain

B1: m5; m2 TAZ:W43A; TAZ:K46A; TAZ:L48A; TAZ:S51A; TAZ:F52A; TAZ:F53A; TEAD1:E255A; TEAD1:V257A; TEAD1:I262A (protein)
chain: PGQQVIHVTQDLDTDLEALFNSVMNPKPSSARKAIAPEAAAKEPDSGSHSRQSSTDSSGGHPGPRLAGGAQHVRSHSSPASLQLGTGAGAAGSPAQQHAHLRQQSYD
Binder B1 has a response (fold over LgBiT-TEAD1 alone) [1] of 19.

B2: m17; m14 TAZ:W43A; TAZ:K46A; TAZ:L48A; TAZ:S51A; TAZ:F52A; TAZ:F53A; TEAD1:E255A; TEAD1:V257A; TEAD1:I262A (protein)
chain: B1 chain
Work on B2 yielded a response (fold over LgBiT-TEAD1 alone) [2] of 12.
